The results in this text go back to patent publication US20220356259A1 (SHIHUDA PHARMACEUTICAL GROUP JILIN, published 2022).

The labels stand for the following.
T1: fusion protein in which the extracellular domain of human GITR is fused with the domain of mouse IgG1-Fc (human)
T1 construct: The GITR part is said to start at residue 1 of Q9Y5U5, so the entry may hold a signal peptide; Made in HEK293 cells, Protein A purified; also called hGITR-muFc; human GITR protein
T1 chain: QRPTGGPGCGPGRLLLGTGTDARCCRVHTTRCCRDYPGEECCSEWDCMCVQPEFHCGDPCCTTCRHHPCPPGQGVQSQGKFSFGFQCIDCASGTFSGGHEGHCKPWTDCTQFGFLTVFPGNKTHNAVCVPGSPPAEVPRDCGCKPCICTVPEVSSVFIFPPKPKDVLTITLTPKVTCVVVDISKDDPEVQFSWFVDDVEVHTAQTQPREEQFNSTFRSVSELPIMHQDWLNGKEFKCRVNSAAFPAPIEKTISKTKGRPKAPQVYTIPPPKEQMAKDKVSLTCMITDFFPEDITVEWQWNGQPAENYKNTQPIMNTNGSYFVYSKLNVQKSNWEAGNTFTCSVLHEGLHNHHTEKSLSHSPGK

B1: isolated antigen-binding protein 3E2 2-3 (antibody, human IgG1, kappa)
heavy: not shown
light: DIVMTQSPLSLPVTLGQPASISCRSSQTIVHSNGNTYLEWYLQKPGQSPKLLIYKVSNRFSGVPDRFSGSGSGTDFTLKISRVEAEDVGVYYCFQGSHVPWTFGGGTKLEIKRTVAAPSVFIFPPSDEQLKSGTASVVCLLNNFYPREAKVQWKVDNALQSGNSQESVTEQDSKDSTYSLSSTLTLSKADYEKHKVYACEVTHQGLSSPVTKSFNRGEC
notes: also called VHV2/VLV3
B2: isolated antigen-binding protein 3E2 1-4 (antibody, human IgG1, kappa)
heavy: not shown
light: B1 light with Q17D, P18Q
notes: also called VHV1/VLV4
B3: isolated antigen-binding protein 3E2 1-2 (antibody, human IgG1, kappa, V domains shown)
VH: QVTLQESGPTLVKPTQTLTLTCTFSGFSLSTFGMGVGWIRQPPGKGLEWLVLILWNDIKYYNPALKSLLTVTKDTSKNQVVLTITNMDPVDTATYYCARVDGYYGYFDVWGQGTMVTVSS
VL: DIVMTQSPLSLPVTLGQPASISCRSSQTIVHSNGNTYLEWYLQRPGQSPKLLIYKVSNRFSGVPDRFSGSGSGTDFTLKISRVEAEDVGVYYCFQGSHVPWTFGGGTKVEIKR
notes: also called VHV1/VLV2
B4: isolated antigen-binding protein 3E2 1-3 (antibody, human IgG1, kappa)
heavy: not shown
light: B1 light
notes: also called VHV1/VLV3
B5: isolated antigen-binding protein 3E2 3-4 (antibody, human IgG1, kappa)
heavy: not shown
light: B1 light with Q17D, P18Q
notes: also called VHV3/VLV4
B6: isolated antigen-binding protein 3E2 3-3 (antibody, human IgG1, kappa)
heavy: not shown
light: B1 light
notes: also called VHV3/VLV3
B7: isolated antigen-binding protein 3E2 2-2 (antibody, human IgG1, kappa)
heavy: not shown
light: B1 light with K44R, L109V
notes: also called VHV2/VLV2
B8: isolated antigen-binding protein 3E2 2-4 (antibody, human IgG1, kappa)
heavy: not shown
light: B1 light with Q17D, P18Q
notes: also called VHV2/VLV4
B9: isolated antigen-binding protein 3E2 3-2 (antibody, human IgG1, kappa)
heavy: not shown
light: B1 light with K44R, L109V
notes: also called VHV3/VLV2
B10: isolated antigen-binding protein C3E2 (antibody, human IgG1, kappa, V domains shown)
VH: QVQLQESGPGILQPSQTLSLTCSFSGFSLSTFGMGVGWIRQPSGKGLEWLVLILWNDIKYYNPALKSLLTVSKDTSNNQVFLKIASVDTADTATYYCARVDGYYGYFDVWGTGTTVTVSS
VL: B3 VL with T14S, Q17D, P18Q, R44K, V88L, V109L
notes: made in HEK293 cells; also called parent antibody; chimeric antibody

One may read the Kd as the constant that tells how readily two partners part at equilibrium. Lower therefore signals a tighter complex. Usually koff stands for the first-order rate constant of dissociation. A word on the kon: it is a measure of how fast the partners come together. One may read the EC50 as the concentration that produces a half-maximal response. A lower EC50 goes with an effect from little substance.

Positions count from the first letter of the chain named.

In one test the target is T1, fusion protein in which the …. The test is described as follows: BLI (Octet K2), antibody on AHC biosensor, hGITR-muFc in solution from 100 nM. As for the experimental part:
Using the BLI method, the above 9 isolated antigen-binding proteins of the present application and C3E2 were immobilized on the AHC biosensor at a concentration of 10 µg/ml. At the same time, the hGITR-muFc prepared in Example 1 was diluted 2-fold from 100 nM in 5 gradients. The reaction plate was placed on Octet K2 instrument, meanwhile the program was set as Baseline 60 s, Association 20 s, Disscociation 300 s, Baseline 2 30 s, Loading 40 s, custom 5 s. At the end of the program, curve fitting and parameter conversion were conducted.
For B1, the Kd was under 1 pM, the koff was under 1e-07 s⁻¹ and the kon came to 2.46e+06 M⁻¹ s⁻¹.
In the case of B2, the Kd is under 1 pM, the koff was under 1e-07 s⁻¹ and the kon amounted to 2.55e+06 M⁻¹ s⁻¹.
The molecule B3 displayed a Kd of under 1 pM, a koff of under 1e-07 s⁻¹ and a kon of 2.49e+06 M⁻¹ s⁻¹.
Turning to B4, the dissociation constant Kd is under 1 pM, the koff is under 1e-07 s⁻¹ and the kon was found to be 2.32e+06 M⁻¹ s⁻¹.
B5 yielded a dissociation constant Kd of 4.72 pM, a koff of 1.23e-05 s⁻¹ and a kon of 2.6e+06 M⁻¹ s⁻¹.
For B6, the Kd was under 1 pM, the off-rate constant (koff) is under 1e-07 s⁻¹ and the kon amounted to 2.49e+06 M⁻¹ s⁻¹.
Consider B7, for which the Kd came to 12.5 pM, the koff turned out to be 3.01e-05 s⁻¹ and the kon was found to be 2.4e+06 M⁻¹ s⁻¹.
Regarding B8, the Kd was under 1 pM, the koff was under 1e-07 s⁻¹ and the kon is 2.41e+06 M⁻¹ s⁻¹.
In the case of B9, the Kd is under 1 pM, the dissociation rate constant (koff) is under 1e-07 s⁻¹ and the association rate constant (kon) was 2.52e+06 M⁻¹ s⁻¹.
B10 showed a Kd of 6.01 pM, a koff of 1.83e-05 s⁻¹ and a kon of 3.05e+06 M⁻¹ s⁻¹.

The next test shares this target. The test is described as follows: ELISA, hGITR-muFc coated at 5 ug/ml, anti-human IgG-HRP (FIG. 5). The method, then: (§1) An ELISA plate was coated with 5 μg/ml of hGITR-muFc at 100 μl/well, and incubated overnight at 4° C. The plate was washed with 10 mM of PBS/Tween (0.05%) at pH 7.4 for 3 times, blocked with PBS containing 3% BSA and incubated at 37° C. for 2 h; then washed for 3 times, added with the above 9 isolated antigen-binding proteins of the present application in 3-fold dilutions starting from 10 μg/ml, incubated at 37° C. for 2 h, washed for 3 times, added with anti-human IgG-HRP enzyme-labeled secondary antibody, incubated at 37° C. for 1 h, cleaned, then developed with TMB substrate, and subjected to spectrophotometric analysis at OD450 nm. The results are shown in FIG. 5 and FIG. 6, in which the EC₅₀ values of various proteins in FIG. 5 and FIG. 6 are shown in Table 3 and Table 4, respectively. It can be seen from FIG. 5 and FIG. 6 as well as Table 3 and Table 4 that, the humanized antibodies (i.e., the isolated antigen-binding proteins of the present application 3E2 1-2, 3E2 1-3, 3E2 1-4, 3E2 2-2, 3E2 2-3, 3E2 2-4, 3E2 3-2, 3E2 3-3 and 3E2 3-4) have a binding affinity to the antigen that is equivalent to that of the parent antibody (i.e., the isolated antigen-binding protein C3E2 of the present application).
(ELISA stands for enzyme-linked immunosorbent assay.)
B2 displayed an EC50 of 4.52 ng/mL.
Take B3: the concentration for a half-maximal effect (EC50) was 5.9 ng/mL.
Take B4: the midpoint of the response, the EC50, lay at 5.83 ng/mL.
Take B7: the EC50 was 5.64 ng/mL. This EC50 and that of the molecule before are within 1.5-fold of each other.
On to B10, for which the concentration giving a half-maximal response (EC50) is 6.21 ng/mL.

The target is the same in another test. Description: ELISA, hGITR-muFc coated at 5 ug/ml, anti-human IgG-HRP (FIG. 6). As for the experimental part: as §1
B1 came in with an EC50 of 4.71 ng/mL.
Take B5: the midpoint of the response, the EC50, lay at 6.43 ng/mL. The EC50 values of the last two molecules are within 1.5-fold of each other.
Turning to B6, the EC50 was determined as 6.04 ng/mL.
Regarding B8, it took 4.8 ng/mL to reach a half-maximal effect (EC50).
In turn, B9 had an EC50 of 5.28 ng/mL.
Consider B10, for which the EC50 was determined as 6.72 ng/mL.
